Data taken from the supplement of paper PMC7125110.
± gives the standard error. Fewer inactive variants are shown than the library holds.

B1: glmS ribozyme (parent)
chain: AUAAAAGCGCCAGAACUACAGAAAUGUAGUUGACGAGGAGGAGGUUUAUCGAAUUUUCGGCGGAUGCCUCCAAA

Key:
Conditions in all cases: with glucosamine-6-phosphate
[1] = variants of: B1; assay: self-cleavage kobs at 40 uM GlcN6P; higher = faster cleavage; RNA array
In short: (§1)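 Over ~14 h at 37 °C, tiles were imaged as glucosamine-6-phosphate (40 μM to 10 mM) in HEPES/KCl/Mg(OAc)2 buffer flowed across sequenced MiSeq chips. The chips carried barcoded ribozyme variants transcribed in situ by E. coli RNA polymerase and tracked with a hybridised Cy3 probe. After normalisation to baseline and to non-cleaving reference variants, one- or two-exponential decay fits of per-tile medians gave kobs. kcat and KM followed from weighted Michaelis–Menten fits across concentrations.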

[2] = variants of: B1; assay: self-cleavage kobs at 160 uM GlcN6P; higher = faster cleavage; RNA array
In short: as §1

[3] = variants of: B1; assay: self-cleavage kobs at 640 uM GlcN6P; higher = faster cleavage; RNA array
In short: as §1

[4] = variants of: B1; assay: self-cleavage kobs at 2500 uM GlcN6P; higher = faster cleavage; RNA array
In short: as §1

[5] = variants of: B1; assay: self-cleavage kobs at 10000 uM GlcN6P; higher = faster cleavage; RNA array
In short: as §1

| Variant | self-cleavage kobs at 40 uM GlcN6P [1] [s⁻¹] | self-cleavage kobs at 160 uM GlcN6P [2] [s⁻¹] | self-cleavage kobs at 640 uM GlcN6P [3] [s⁻¹] | self-cleavage kobs at 2500 uM GlcN6P [4] [s⁻¹] | self-cleavage kobs at 10000 uM GlcN6P [5] [s⁻¹] |
| --- | --- | --- | --- | --- | --- |
| A12G A64U C71U | < 1e-05 |  |  |  |  |
| G44A A48C | < 1e-05 | < 1e-05 | < 1e-05 | < 1e-05 |  |
| G13A G51A | < 1e-05 |  | < 1e-05 |  | < 1e-05 |
| C8G U31A U57A | < 1e-05 |  |  | < 1e-05 | < 1e-05 |
| A6U A12U G32C A33C C50A | < 1e-05 |  |  |  | < 1e-05 |
| A12C C34G G37U | < 1e-05 |  |  |  | < 1e-05 |
| G7A A15G C61U C71U | < 1e-05 | < 1e-05 |  | < 1e-05 |  |
| C50G C58U | 0.000198 ± 9.7e-05 | 9.14e-05 ± 2.2e-05 |  | 0.000443 ± 0.00019 |  |
| A14U C34G | < 1e-05 | < 1e-05 | < 1e-05 |  | < 1e-05 |
| A42G G62U C68U | < 1e-05 |  |  |  |  |
| U30A G63C | < 1e-05 | < 1e-05 |  | < 1e-05 | < 1e-05 |
| G7U G9C A42G A52U | < 1e-05 |  | < 1e-05 |  |  |
| A36C G60U C67A | < 1e-05 |  |  |  | < 1e-05 |
| A33G A42U | < 1e-05 | < 1e-05 | < 1e-05 | < 1e-05 | < 1e-05 |
| A6C U46A | < 1e-05 | < 1e-05 | < 1e-05 |  |  |
| C11G U45G | < 1e-05 | < 1e-05 | < 1e-05 | < 1e-05 | < 1e-05 |
| G63A U65C | < 1e-05 |  | < 1e-05 |  | < 1e-05 |
| G9C A48C | < 1e-05 |  | < 1e-05 | < 1e-05 |  |
| C34G A39U | < 1e-05 |  | < 1e-05 | < 1e-05 | < 1e-05 |
| A6C G13C C68G | < 1e-05 |  |  | < 1e-05 |  |
| A6U G9U A15C U30A U49C | < 1e-05 |  |  |  |  |
| G44A A48U U69G | < 1e-05 |  |  | < 1e-05 |  |
| A39C A42C C68G | < 1e-05 |  |  |  |  |
| G32C G43C A48G | < 1e-05 |  |  |  |  |

| Variant | self-cleavage kobs at 40 uM GlcN6P [1] [s⁻¹] | self-cleavage kobs at 160 uM GlcN6P [2] [s⁻¹] | self-cleavage kobs at 640 uM GlcN6P [3] [s⁻¹] | self-cleavage kobs at 2500 uM GlcN6P [4] [s⁻¹] | self-cleavage kobs at 10000 uM GlcN6P [5] [s⁻¹] |
| --- | --- | --- | --- | --- | --- |
| G7C U65A | < 1e-05 |  | < 1e-05 |  | < 1e-05 |
| A33G G63A | < 1e-05 | < 1e-05 |  |  | < 1e-05 |
| A42C G43C C50U C67U | < 1e-05 |  |  |  |  |
| G40A G51A | < 1e-05 | < 1e-05 | < 1e-05 | < 1e-05 | < 1e-05 |
| A6C A12G U69G | < 1e-05 | < 1e-05 |  |  | < 1e-05 |
| G43C C70G | < 1e-05 |  | < 1e-05 | < 1e-05 | < 1e-05 |
| C11A G44U | < 1e-05 | < 1e-05 | < 1e-05 | < 1e-05 |  |
| G9U A14C | < 1e-05 | < 1e-05 | < 1e-05 |  |  |
| G32U G40C C61U C67A | < 1e-05 |  |  |  |  |
| G9A G60A | < 1e-05 |  | < 1e-05 |  |  |
| C34A C58U C71U | < 1e-05 |  |  |  | < 1e-05 |
| C10G U31C G35U | < 1e-05 |  |  |  | < 1e-05 |
| A14G U45A A48U | 0.000108 ± 2.6e-05 |  |  |  | 0.00563 ± 0.001 |
| A14C G41A C50G G59U | < 1e-05 |  |  |  |  |
| A15U U30G G41U | 0.000122 ± 2.7e-05 |  |  | 0.000705 ± 0.00027 | 0.0015 ± 0.00032 |
| G29C G63U | < 1e-05 |  |  | < 1e-05 | < 1e-05 |
| C11U G44U | < 1e-05 | < 1e-05 | < 1e-05 | < 1e-05 |  |
| G32C G35C | < 1e-05 |  | < 1e-05 |  | < 1e-05 |
| A14U A33G | < 1e-05 |  | < 1e-05 |  | < 1e-05 |
| U30A G37U G44U U45A C70U | < 1e-05 |  |  |  | < 1e-05 |
| G9A C58U | < 1e-05 | < 1e-05 | < 1e-05 | < 1e-05 | < 1e-05 |
| U45C G59U | < 1e-05 | < 1e-05 | < 1e-05 |  | < 1e-05 |
| G35A A36C | < 1e-05 | < 1e-05 | < 1e-05 | < 1e-05 |  |
